Measurements reported in patent US20210388087A1 (Chugai, published 2021).

These binders were tested against T1, Human CD137 ECD (human) (assay: Biacore SPR, vs parent H183/L072).
T1 construct: entry includes C-terminal His-tag and biotin acceptor peptide; also called human CD137 extracellular domain; 4-1BB
T1 sequence (chain, as listed by the source limits assumed): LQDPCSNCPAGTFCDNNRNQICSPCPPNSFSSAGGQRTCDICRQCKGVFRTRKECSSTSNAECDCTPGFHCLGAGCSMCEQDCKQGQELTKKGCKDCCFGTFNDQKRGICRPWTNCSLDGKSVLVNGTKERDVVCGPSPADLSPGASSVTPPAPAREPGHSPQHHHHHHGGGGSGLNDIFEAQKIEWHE

Binder	fold change of affinity [fold]
H183/L072 VL Q90F (antibody, name in Kabat numbering, V domains shown, Dual-Ig) VH: QVQLVESGGGLVQPGRSLRLSCAASGFTFSNAWMHWVRQAPGKGLEWVAQIKDKGNAYAAYYAPSVKGRFTISRDDSKNSIYLQMNSLKTEDTAVYYCHYVHYASASTVLPAFGVDAWGQGTTVTVSS VL: DIVMTQSPLSLPVTPGEPASISCQASQELVHMNRNTYLHWYQQKPGQAPRLLIYKVSNRFPGVPDRFSGSGSGTDFTLKISRVEAEDVGVYYCAFGTSVPFTFGQGTKLEIK	0
H183/L072 VL Q90P (antibody, name in Kabat numbering, V domains shown, Dual-Ig) VH: QVQLVESGGGLVQPGRSLRLSCAASGFTFSNAWMHWVRQAPGKGLEWVAQIKDKGNAYAAYYAPSVKGRFTISRDDSKNSIYLQMNSLKTEDTAVYYCHYVHYASASTVLPAFGVDAWGQGTTVTVSS VL: DIVMTQSPLSLPVTPGEPASISCQASQELVHMNRNTYLHWYQQKPGQAPRLLIYKVSNRFPGVPDRFSGSGSGTDFTLKISRVEAEDVGVYYCAPGTSVPFTFGQGTKLEIK	0
H183/L072 VL Q90H (antibody, name in Kabat numbering, V domains shown, Dual-Ig) VH: QVQLVESGGGLVQPGRSLRLSCAASGFTFSNAWMHWVRQAPGKGLEWVAQIKDKGNAYAAYYAPSVKGRFTISRDDSKNSIYLQMNSLKTEDTAVYYCHYVHYASASTVLPAFGVDAWGQGTTVTVSS VL: DIVMTQSPLSLPVTPGEPASISCQASQELVHMNRNTYLHWYQQKPGQAPRLLIYKVSNRFPGVPDRFSGSGSGTDFTLKISRVEAEDVGVYYCAHGTSVPFTFGQGTKLEIK	0.2
H183/L072 VL Q90L (antibody, name in Kabat numbering, V domains shown, Dual-Ig) VH: QVQLVESGGGLVQPGRSLRLSCAASGFTFSNAWMHWVRQAPGKGLEWVAQIKDKGNAYAAYYAPSVKGRFTISRDDSKNSIYLQMNSLKTEDTAVYYCHYVHYASASTVLPAFGVDAWGQGTTVTVSS VL: DIVMTQSPLSLPVTPGEPASISCQASQELVHMNRNTYLHWYQQKPGQAPRLLIYKVSNRFPGVPDRFSGSGSGTDFTLKISRVEAEDVGVYYCALGTSVPFTFGQGTKLEIK	0
H183/L072 VL Q90I (antibody, name in Kabat numbering, V domains shown, Dual-Ig) VH: QVQLVESGGGLVQPGRSLRLSCAASGFTFSNAWMHWVRQAPGKGLEWVAQIKDKGNAYAAYYAPSVKGRFTISRDDSKNSIYLQMNSLKTEDTAVYYCHYVHYASASTVLPAFGVDAWGQGTTVTVSS VL: DIVMTQSPLSLPVTPGEPASISCQASQELVHMNRNTYLHWYQQKPGQAPRLLIYKVSNRFPGVPDRFSGSGSGTDFTLKISRVEAEDVGVYYCAIGTSVPFTFGQGTKLEIK	0
H183/L072 VL Q90K (antibody, name in Kabat numbering, V domains shown, Dual-Ig) VH: QVQLVESGGGLVQPGRSLRLSCAASGFTFSNAWMHWVRQAPGKGLEWVAQIKDKGNAYAAYYAPSVKGRFTISRDDSKNSIYLQMNSLKTEDTAVYYCHYVHYASASTVLPAFGVDAWGQGTTVTVSS VL: DIVMTQSPLSLPVTPGEPASISCQASQELVHMNRNTYLHWYQQKPGQAPRLLIYKVSNRFPGVPDRFSGSGSGTDFTLKISRVEAEDVGVYYCAKGTSVPFTFGQGTKLEIK	0
H183/L072 VL Q90G (antibody, name in Kabat numbering, V domains shown, Dual-Ig) VH: QVQLVESGGGLVQPGRSLRLSCAASGFTFSNAWMHWVRQAPGKGLEWVAQIKDKGNAYAAYYAPSVKGRFTISRDDSKNSIYLQMNSLKTEDTAVYYCHYVHYASASTVLPAFGVDAWGQGTTVTVSS VL: DIVMTQSPLSLPVTPGEPASISCQASQELVHMNRNTYLHWYQQKPGQAPRLLIYKVSNRFPGVPDRFSGSGSGTDFTLKISRVEAEDVGVYYCAGGTSVPFTFGQGTKLEIK	0
H183/L072 VL Q90N (antibody, name in Kabat numbering, V domains shown, Dual-Ig) VH: QVQLVESGGGLVQPGRSLRLSCAASGFTFSNAWMHWVRQAPGKGLEWVAQIKDKGNAYAAYYAPSVKGRFTISRDDSKNSIYLQMNSLKTEDTAVYYCHYVHYASASTVLPAFGVDAWGQGTTVTVSS VL: DIVMTQSPLSLPVTPGEPASISCQASQELVHMNRNTYLHWYQQKPGQAPRLLIYKVSNRFPGVPDRFSGSGSGTDFTLKISRVEAEDVGVYYCANGTSVPFTFGQGTKLEIK	0
H183/L072 VL Q90M (antibody, name in Kabat numbering, V domains shown, Dual-Ig) VH: QVQLVESGGGLVQPGRSLRLSCAASGFTFSNAWMHWVRQAPGKGLEWVAQIKDKGNAYAAYYAPSVKGRFTISRDDSKNSIYLQMNSLKTEDTAVYYCHYVHYASASTVLPAFGVDAWGQGTTVTVSS VL: DIVMTQSPLSLPVTPGEPASISCQASQELVHMNRNTYLHWYQQKPGQAPRLLIYKVSNRFPGVPDRFSGSGSGTDFTLKISRVEAEDVGVYYCAMGTSVPFTFGQGTKLEIK	0

More lines, now with the values ahead:

fold change of affinity [fold]	Binder
0.8	H183/L072 VL R29A (antibody, name in Kabat numbering, V domains shown, Dual-Ig) VH: QVQLVESGGGLVQPGRSLRLSCAASGFTFSNAWMHWVRQAPGKGLEWVAQIKDKGNAYAAYYAPSVKGRFTISRDDSKNSIYLQMNSLKTEDTAVYYCHYVHYASASTVLPAFGVDAWGQGTTVTVSS VL: DIVMTQSPLSLPVTPGEPASISCQASQELVHMNANTYLHWYQQKPGQAPRLLIYKVSNRFPGVPDRFSGSGSGTDFTLKISRVEAEDVGVYYCAQGTSVPFTFGQGTKLEIK
0	H183/L072 VL Q90T (antibody, name in Kabat numbering, V domains shown, Dual-Ig) VH: QVQLVESGGGLVQPGRSLRLSCAASGFTFSNAWMHWVRQAPGKGLEWVAQIKDKGNAYAAYYAPSVKGRFTISRDDSKNSIYLQMNSLKTEDTAVYYCHYVHYASASTVLPAFGVDAWGQGTTVTVSS VL: DIVMTQSPLSLPVTPGEPASISCQASQELVHMNRNTYLHWYQQKPGQAPRLLIYKVSNRFPGVPDRFSGSGSGTDFTLKISRVEAEDVGVYYCATGTSVPFTFGQGTKLEIK
0.3	H183/L072 VL R29D (antibody, name in Kabat numbering, V domains shown, Dual-Ig) VH: QVQLVESGGGLVQPGRSLRLSCAASGFTFSNAWMHWVRQAPGKGLEWVAQIKDKGNAYAAYYAPSVKGRFTISRDDSKNSIYLQMNSLKTEDTAVYYCHYVHYASASTVLPAFGVDAWGQGTTVTVSS VL: DIVMTQSPLSLPVTPGEPASISCQASQELVHMNDNTYLHWYQQKPGQAPRLLIYKVSNRFPGVPDRFSGSGSGTDFTLKISRVEAEDVGVYYCAQGTSVPFTFGQGTKLEIK
0.7	H183/L072 VL R29F (antibody, name in Kabat numbering, V domains shown, Dual-Ig) VH: QVQLVESGGGLVQPGRSLRLSCAASGFTFSNAWMHWVRQAPGKGLEWVAQIKDKGNAYAAYYAPSVKGRFTISRDDSKNSIYLQMNSLKTEDTAVYYCHYVHYASASTVLPAFGVDAWGQGTTVTVSS VL: DIVMTQSPLSLPVTPGEPASISCQASQELVHMNFNTYLHWYQQKPGQAPRLLIYKVSNRFPGVPDRFSGSGSGTDFTLKISRVEAEDVGVYYCAQGTSVPFTFGQGTKLEIK
1.1	H183/L072 VL R29G (antibody, name in Kabat numbering, V domains shown, Dual-Ig) VH: QVQLVESGGGLVQPGRSLRLSCAASGFTFSNAWMHWVRQAPGKGLEWVAQIKDKGNAYAAYYAPSVKGRFTISRDDSKNSIYLQMNSLKTEDTAVYYCHYVHYASASTVLPAFGVDAWGQGTTVTVSS VL: DIVMTQSPLSLPVTPGEPASISCQASQELVHMNGNTYLHWYQQKPGQAPRLLIYKVSNRFPGVPDRFSGSGSGTDFTLKISRVEAEDVGVYYCAQGTSVPFTFGQGTKLEIK
0.8	H183/L072 VL R29H (antibody, name in Kabat numbering, V domains shown, Dual-Ig) VH: QVQLVESGGGLVQPGRSLRLSCAASGFTFSNAWMHWVRQAPGKGLEWVAQIKDKGNAYAAYYAPSVKGRFTISRDDSKNSIYLQMNSLKTEDTAVYYCHYVHYASASTVLPAFGVDAWGQGTTVTVSS VL: DIVMTQSPLSLPVTPGEPASISCQASQELVHMNHNTYLHWYQQKPGQAPRLLIYKVSNRFPGVPDRFSGSGSGTDFTLKISRVEAEDVGVYYCAQGTSVPFTFGQGTKLEIK
0	H183/L072 VL Q90S (antibody, name in Kabat numbering, V domains shown, Dual-Ig) VH: QVQLVESGGGLVQPGRSLRLSCAASGFTFSNAWMHWVRQAPGKGLEWVAQIKDKGNAYAAYYAPSVKGRFTISRDDSKNSIYLQMNSLKTEDTAVYYCHYVHYASASTVLPAFGVDAWGQGTTVTVSS VL: DIVMTQSPLSLPVTPGEPASISCQASQELVHMNRNTYLHWYQQKPGQAPRLLIYKVSNRFPGVPDRFSGSGSGTDFTLKISRVEAEDVGVYYCASGTSVPFTFGQGTKLEIK
0	H183/L072 VL Q90W (antibody, name in Kabat numbering, V domains shown, Dual-Ig) VH: QVQLVESGGGLVQPGRSLRLSCAASGFTFSNAWMHWVRQAPGKGLEWVAQIKDKGNAYAAYYAPSVKGRFTISRDDSKNSIYLQMNSLKTEDTAVYYCHYVHYASASTVLPAFGVDAWGQGTTVTVSS VL: DIVMTQSPLSLPVTPGEPASISCQASQELVHMNRNTYLHWYQQKPGQAPRLLIYKVSNRFPGVPDRFSGSGSGTDFTLKISRVEAEDVGVYYCAWGTSVPFTFGQGTKLEIK
0.3	H183/L072 VL R29I (antibody, name in Kabat numbering, V domains shown, Dual-Ig) VH: QVQLVESGGGLVQPGRSLRLSCAASGFTFSNAWMHWVRQAPGKGLEWVAQIKDKGNAYAAYYAPSVKGRFTISRDDSKNSIYLQMNSLKTEDTAVYYCHYVHYASASTVLPAFGVDAWGQGTTVTVSS VL: DIVMTQSPLSLPVTPGEPASISCQASQELVHMNINTYLHWYQQKPGQAPRLLIYKVSNRFPGVPDRFSGSGSGTDFTLKISRVEAEDVGVYYCAQGTSVPFTFGQGTKLEIK
0	H183/L072 VL Q90R (antibody, name in Kabat numbering, V domains shown, Dual-Ig) VH: QVQLVESGGGLVQPGRSLRLSCAASGFTFSNAWMHWVRQAPGKGLEWVAQIKDKGNAYAAYYAPSVKGRFTISRDDSKNSIYLQMNSLKTEDTAVYYCHYVHYASASTVLPAFGVDAWGQGTTVTVSS VL: DIVMTQSPLSLPVTPGEPASISCQASQELVHMNRNTYLHWYQQKPGQAPRLLIYKVSNRFPGVPDRFSGSGSGTDFTLKISRVEAEDVGVYYCARGTSVPFTFGQGTKLEIK
0.4	H183/L072 VL R29E (antibody, name in Kabat numbering, V domains shown, Dual-Ig) VH: QVQLVESGGGLVQPGRSLRLSCAASGFTFSNAWMHWVRQAPGKGLEWVAQIKDKGNAYAAYYAPSVKGRFTISRDDSKNSIYLQMNSLKTEDTAVYYCHYVHYASASTVLPAFGVDAWGQGTTVTVSS VL: DIVMTQSPLSLPVTPGEPASISCQASQELVHMNENTYLHWYQQKPGQAPRLLIYKVSNRFPGVPDRFSGSGSGTDFTLKISRVEAEDVGVYYCAQGTSVPFTFGQGTKLEIK
0	H183/L072 VL Q90V (antibody, name in Kabat numbering, V domains shown, Dual-Ig) VH: QVQLVESGGGLVQPGRSLRLSCAASGFTFSNAWMHWVRQAPGKGLEWVAQIKDKGNAYAAYYAPSVKGRFTISRDDSKNSIYLQMNSLKTEDTAVYYCHYVHYASASTVLPAFGVDAWGQGTTVTVSS VL: DIVMTQSPLSLPVTPGEPASISCQASQELVHMNRNTYLHWYQQKPGQAPRLLIYKVSNRFPGVPDRFSGSGSGTDFTLKISRVEAEDVGVYYCAVGTSVPFTFGQGTKLEIK
